This passage reports stoichiometry N results from publication PMC11449360.

For the test, the target named is Recombinant full-length MMTV Gag containing hexa-histidine tag at the C-terminus (Pr77^Gag) (mouse mammary tumor virus (MMTV)). Description: dynamic light scattering; purified Pr77^Gag-His6 alone in storage buffer (50 mM Tris-HCl pH 8.0, 1 M NaCl); the hydrodynamic radius (about 6.00 nm) from volume and number distributions is read as the oligomer's size.

Take “Recombinant full-length MMTV Gag containing hexa-histidine tag at the C-terminus (Pr77^Gag) (natural protein)”: the stoichiometry N came out at 3.
